The values below are quoted from earlier work in paper PMC6340931.

Like-named read-outs stand apart in the source and are kept apart here.

The target of data set [1] is Neurotensin (Homo sapiens) (UniProt P30990).
Data set [2] addresses Sortilin-derived propeptide (SDP) Gln1-Arg44 (Homo sapiens) (UniProt Q99523).
The target is the same in data set [3]. The source holds these as a separate data set.

Sortilin (from UniProt Q99523): the Kd in data set [1] was 0.3 nM.
In the case of Sortilin mature (from UniProt Q99523), the Kd in data set [2] is 5 nM.
Turning to TREK-1 (from UniProt O95069), the Kd in data set [3] is 5 nM.
